The supplement of paper PMC9112550, “Optimization of the antimicrobial peptide Bac7 by deep mutational scanning” (BMC Biology, 2022)
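Note: peptides expressed intracellularly from a pBAD plasmid library in pooled LB shake-flask culture, induced with 0.3% L-arabinose, DNA abundance read by NGS, three biological replicates, DESeq2 with apeglm shrinkage.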

Each sequence was assayed on Escherichia coli TOP10 (assay: shrunken log2 fold change of peptide-encoding DNA abundance (4.5 h post-induction vs induction); higher = less antimicrobial activity (less host growth inhibition)). Details: time post-induction: 4.5 h; library: site-saturation at positions 5, 18, 19, 20.
In the case of RRIRTRPPRLPRPRPRPGEPPRP, the “shrunken log2 fold change” value is reported as -0.026. With RRIRRRPPRLPRPRPRPFYCPRP the “shrunken log2 fold change” value was -0.162. In the case of RRIRERPPRLPRPRPRPMVSPRP, the “shrunken log2 fold change” value is reported as -0.0769. RRIRCRPPRLPRPRPRPEGMPRP was tested, and the “shrunken log2 fold change” value was 0.422. With RRIRGRPPRLPRPRPRPYHRPRP the “shrunken log2 fold change” value was -0.203. With RRIRERPPRLPRPRPRPWAIPRP the “shrunken log2 fold change” value was -0.0826. RRIRYRPPRLPRPRPRPMHHPRP was tested, and the “shrunken log2 fold change” value was -0.596. With RRIRSRPPRLPRPRPRPPRCPRP the “shrunken log2 fold change” value was 0.218. For RRIRFRPPRLPRPRPRPCKNPRP, the “shrunken log2 fold change” value was 0.0492. In the case of RRIRYRPPRLPRPRPRPLYTPRP, the “shrunken log2 fold change” value is reported as -0.795. For RRIRGRPPRLPRPRPRPMFCPRP, the “shrunken log2 fold change” value was 0.178. In the case of RRIRQRPPRLPRPRPRPYYNPRP, the “shrunken log2 fold change” value is reported as -0.392. RRIRVRPPRLPRPRPRPPVCPRP was tested, and the “shrunken log2 fold change” value was 0.191. With RRIRKRPPRLPRPRPRPNFWPRP the “shrunken log2 fold change” value was -0.152. RRIRWRPPRLPRPRPRPGVKPRP was tested, and the “shrunken log2 fold change” value was 0.505. RRIRSRPPRLPRPRPRPDFEPRP was tested, and the “shrunken log2 fold change” value was -0.0501. In the case of RRIRCRPPRLPRPRPRPYHTPRP, the “shrunken log2 fold change” value is reported as -0.887. In the case of RRIRARPPRLPRPRPRPYYRPRP, the “shrunken log2 fold change” value is reported as -0.183. In the case of RRIRMRPPRLPRPRPRPSALPRP, the “shrunken log2 fold change” value is reported as 0.105. RRIRCRPPRLPRPRPRPDWYPRP was tested, and the “shrunken log2 fold change” value was -0.241. For RRIRWRPPRLPRPRPRPSSAPRP, the “shrunken log2 fold change” value was 0.443. RRIRNRPPRLPRPRPRPKHIPRP was tested, and the “shrunken log2 fold change” value was -0.438. With RRIRCRPPRLPRPRPRPYAYPRP the “shrunken log2 fold change” value was -0.208. In the case of RRIRTRPPRLPRPRPRPWKFPRP, the “shrunken log2 fold change” value is reported as -0.0178. With RRIRVRPPRLPRPRPRPGNSPRP the “shrunken log2 fold change” value was 0.0126. With RRIRARPPRLPRPRPRPCRWPRP the “shrunken log2 fold change” value was 0.26. In the case of RRIRDRPPRLPRPRPRPQIEPRP, the “shrunken log2 fold change” value is reported as -0.0186. With RRIRCRPPRLPRPRPRPWCVPRP the “shrunken log2 fold change” value was -0.0995. With RRIRRRPPRLPRPRPRPWHSPRP the “shrunken log2 fold change” value was -0.254. In the case of RRIRMRPPRLPRPRPRPYVRPRP, the “shrunken log2 fold change” value is reported as -0.313. For RRIRCRPPRLPRPRPRPGREPRP, the “shrunken log2 fold change” value was 2.28. For RRIRHRPPRLPRPRPRPVCCPRP, the “shrunken log2 fold change” value was -0.0885. For RRIRTRPPRLPRPRPRPEIPPRP, the “shrunken log2 fold change” value was -0.104. In the case of RRIRIRPPRLPRPRPRPHTCPRP, the “shrunken log2 fold change” value is reported as -0.0906. With RRIRVRPPRLPRPRPRPEDYPRP the “shrunken log2 fold change” value was 0.0316. With RRIRNRPPRLPRPRPRPMLVPRP the “shrunken log2 fold change” value was -0.0299. For RRIRQRPPRLPRPRPRPWYHPRP, the “shrunken log2 fold change” value was -0.32. RRIRTRPPRLPRPRPRPFLYPRP was tested, and the “shrunken log2 fold change” value was -0.786. RRIRMRPPRLPRPRPRPHLHPRP was tested, and the “shrunken log2 fold change” value was -0.301. RRIRPRPPRLPRPRPRPIQWPRP was tested, and the “shrunken log2 fold change” value was 0.0833. RRIRIRPPRLPRPRPRPRDQPRP was tested, and the “shrunken log2 fold change” value was -0.0489. For RRIRMRPPRLPRPRPRPSATPRP, the “shrunken log2 fold change” value was 3.21. With RRIRWRPPRLPRPRPRPMVCPRP the “shrunken log2 fold change” value was 0.199. For RRIRNRPPRLPRPRPRPVRCPRP, the “shrunken log2 fold change” value was 0.0872. RRIRQRPPRLPRPRPRPILYPRP was tested, and the “shrunken log2 fold change” value was 0.0724. For RRIRERPPRLPRPRPRPKPSPRP, the “shrunken log2 fold change” value was 0.229. In the case of RRIRVRPPRLPRPRPRPWYTPRP, the “shrunken log2 fold change” value is reported as -0.507. In the case of RRIRMRPPRLPRPRPRPIAYPRP, the “shrunken log2 fold change” value is reported as 0.0419. With RRIRWRPPRLPRPRPRPRETPRP the “shrunken log2 fold change” value was 0.936. RRIRSRPPRLPRPRPRPDMTPRP was tested, and the “shrunken log2 fold change” value was 0.154. In the case of RRIRIRPPRLPRPRPRPIMSPRP, the “shrunken log2 fold change” value is reported as 0.0262. For RRIRDRPPRLPRPRPRPAPMPRP, the “shrunken log2 fold change” value was 0.445. In the case of RRIRIRPPRLPRPRPRPWCKPRP, the “shrunken log2 fold change” value is reported as -0.284. With RRIRGRPPRLPRPRPRPAKEPRP the “shrunken log2 fold change” value was 0.414. In the case of RRIRMRPPRLPRPRPRPMLMPRP, the “shrunken log2 fold change” value is reported as 0.0323. For RRIRVRPPRLPRPRPRPTNHPRP, the “shrunken log2 fold change” value was -0.384. RRIRGRPPRLPRPRPRPYKHPRP was tested, and the “shrunken log2 fold change” value was -0.463. With RRIRHRPPRLPRPRPRPREIPRP the “shrunken log2 fold change” value was 0.0735. With RRIRIRPPRLPRPRPRPTEYPRP the “shrunken log2 fold change” value was -0.251. RRIRFRPPRLPRPRPRPCDLPRP was tested, and the “shrunken log2 fold change” value was -0.142. RRIRCRPPRLPRPRPRPGRFPRP was tested, and the “shrunken log2 fold change” value was 0.0435. In the case of RRIRWRPPRLPRPRPRPWSMPRP, the “shrunken log2 fold change” value is reported as -0.269. For RRIRYRPPRLPRPRPRPTAEPRP, the “shrunken log2 fold change” value was 0.0226. In the case of RRIRSRPPRLPRPRPRPIGEPRP, the “shrunken log2 fold change” value is reported as -0.017. For RRIRCRPPRLPRPRPRPLPEPRP, the “shrunken log2 fold change” value was 0.397. For RRIRARPPRLPRPRPRPRKYPRP, the “shrunken log2 fold change” value was 0.0773. For RRIRQRPPRLPRPRPRPAQRPRP, the “shrunken log2 fold change” value was 0.302. In the case of RRIRTRPPRLPRPRPRPLIAPRP, the “shrunken log2 fold change” value is reported as 0.112. For RRIRRRPPRLPRPRPRPYTYPRP, the “shrunken log2 fold change” value was 0.0668. With RRIRWRPPRLPRPRPRPKFSPRP the “shrunken log2 fold change” value was 0.346. In the case of RRIRLRPPRLPRPRPRPYPVPRP, the “shrunken log2 fold change” value is reported as -0.025. For RRIRSRPPRLPRPRPRPYWHPRP, the “shrunken log2 fold change” value was -0.783. For RRIRSRPPRLPRPRPRPLQTPRP, the “shrunken log2 fold change” value was 0.436. With RRIRCRPPRLPRPRPRPQQPPRP the “shrunken log2 fold change” value was 0.345. With RRIRPRPPRLPRPRPRPEIWPRP the “shrunken log2 fold change” value was 0.374.
